Article PMC4188581 (2014)

Biological target: CDK2 (Homo sapiens, UniProt P24941)
Experiment: SPR

B1: LAALS peptide (peptide)
chain: LAALS
modifications: 60 uM ATP
Work on B1 yielded a Kd of 61 µM.
